# Experiment: soluble on expression in E. coli; label from the status in PepcDB or PDB records
row,Sequence,soluble on expression in E. coli
1,MAHHHHHHMPVPVLLDNYAYFILSCKTKRCAVVDPADPTLVLNMLEVVRNLTQIDFMITDILTTHKHWDHAGGNMEMRALSQCSSERCRALLSPELNIYGSEVDRPHACNKLIKGSDELVVAGGGAKVVVLSTPGHTGGSVMFLVGDALPKEGEPQRLALFTGDCVFCGGCGALFEATSVDETLETVDIFNNNRTWVHPATGDIIHTDDVLIYVGHEYTERSLDMILSVQRTANQTGEQSAIATSNYCDTVAQARNGARRLRSCVVADDVYMKVTSMETKAPLHLRACTVPSTVTIEKKVNALLSLKRCVLEEFQGKPYASMAVQRAIYTSTKRNDTG,not soluble
2,QLTRERLTATSRYKLSSSDTFRVIGNPEPREGKLRMQVQLTGGSSPSYILYIRHEGEYEPVARGDMLKLRKFYARSVEEWEQKAPAMGRYMAGKGLSGSLHAKTGDVEILSTAKGPFSLRQKALDLSDRLAATLYELSPSLLSDSRRAMLEAMCLGREGEAPDVRRKFVAAGVAH,not soluble
3,MKTPSLILMTIILCNLSIPINAQILTSRQQKEDFDTLYSLLHQVHPDLFVYQTQKEFEKKHDSIYCLLNKERNLSDFYFIVSPFVASVKDGHTNFTIPATQDRIDYLNNGGLTLPLRLKIVENKILVDFPLISCSIQENDEIICMNNINSQTILSQLYLLLGAEKGNAIKENQLTSYLSTLLWYKYNWGEKYDFTIKRGKKIWKESLNGISQADAFPVLKARLGKSLPQFVYTLSPDKQTATLQIMNLYQLPQLKQFCDSVFSVINREHVPNLVIDVRNNKGGSSAGVDMLLSYLSHDAYILYIKTDLKISSYSKRYNEQKHPETYEEIKNLPDGSLFAIRDSFVEGNRDKADIYKGSVTVLVNESTYSGASTFASAIKKSHAGKVLGETGCPTVYFGNYMSFTLPNSRLEYYISLNKFYE,not soluble
4,MGSDKIHHHHHHMEQINHQWLPHLSKEIVEDARGPEFDAYLVALEGWRRGLTLRWHTKDSEAFREIKTWFVDRPGKLFSLRLEEKTHYFFRTRGDKVTNEAVAIGADKEKTKEYLAKAGIPIPEGRRFVAEIEDDEIISYAAEIGYPLVVKPTDGSFGRGVVTNIEDEVTFAEQLRHVRHVLNYKDVIVERHVAGKDYRLYVVGDKVVAAIERIPANVVGNGKQTIQELIEAKNEERQKNPRLISCPIKLDQEMKNHLAIQGYGLDTIPEDGEMVFLTNKSNISIGGDPVDQLDSLPEEVKQLAVQALQAVPQLPHGAVDILYDDKQPVEEGAVVLELNPTAQIGSLVFPMKGIARDVPAAIIDYYFPETKGMNGQKSRFYFDFSDVLEPLVTKTASVTTVSAAPLGEVYGKKYTVTGDVQGIDYHRGLRKQAFERKLSGFVKNLENGNIEVIVMGTDPESVNDFKQAIFEDPERSDVVDVFEESWEEPVKVGFEVKADLKMQVDQLKKMKLELETVQKDLKEAERKNIKYKKSLTWRMTLPFRKTLDVLKYFKRK,not soluble
5,MGSEKMIEICIDMEEGEPLGATPNDKLVITKIQAGTISEGKLRIGDQVKKVNGQNCKDCNDFFRALRFAAPCAKITVNRDEKKAEELEARVHIPEDRAKIIQRREGYVYELATLVWVQNGPKLGLGIKHFQNRVLVSRVDPGSLAEKCLVLGDHLCDVDGIPVSDKDVARDLLVKNIQEKGKVTFVVERPDSIDAKQWAKQALATNLMQPPSVQMNEDVKGIASQYRQALPGLKPPAKSAMSTGPNARRVSIIEQTQTHEIGHDHEGKALRKVK,soluble
6,MGRQAFEFGLRPKDQFKVMQHFDLNTNHLEVLNRLYTPLIGTQAVGLYHFMTQFVKDSHNETLILSHYIFMNELKINLLEFRQQMDLLEAIGLLKAFVKHDEQETQFVYQLIQPPSAHLFFNDPMLSIFLYSEVEHRRFHELKKYFEYQQIDLSEFKQVTRQFTDVFKVPSTKIDIDTSDIPINEPYQGIDLSNESFDFEMLRQMLGKHFISQDIVTKDAKRLITQLATLYGLTADGMKHVILNSITSGQQLSFEEMRKQARSYYLMEHENQMPKLQVKSPATSSSTGKSSEVNPKPQSDEWFELLEQTSPIDMLASWSESEPTISQKTMVEELIEREKMSFGVINILLQFVMLKEDMKLPKAYILEIASNWKKKGIKTAKEAYNYAKKVNQPKNEGSSGNYQKRGSYYGQRNRISKEKTPKWLENRDKPSEEDSAKDNSVDDQQLEQDRQAFLDKLSKKWEEDSR,not soluble
7,MMSKQPTSKRQWRDGAAPSAKKTAKPFKSKARPKDETGKTASQPYGQKASDGIKPQNVPKQRAAKAKKLVVRNPNQKIMEHARDLKERRSDLSRMEPERLQKVLAASGVGSRREMEEWITNGWITVNGKTAQLGDKVTPDDHVTVKGSIIKLKWADRLPRIILYYKQEGEIVSRDDPQGRVSIFDRLPQAASSRWVAIGRLDINTSGLLILTTSGELVQRFAHPSFEVEREYAVRVLGGLTGEQMRVLTEEGVMLEDGLAKVERIREQGGEGANKWYNVVIKEGRNREVRRIFESQGLTVSRLVRIGFGPIGLPNRLKRGQFYELNPAEVANIIKWADMLLPGERRRKKA,not soluble
8,MTEDQVEILEYNFNKVNKHPDPTTLCLIAAEAGLTEEQTQKWFKQRLAEWRRSEGLPSECRSVTD,soluble
9,MGSDKIHHHHHHMTIFSVRHITSYRYKRPVEFGEHRLMFRPRDSFDQTLLSSHLDVDPKPDYIRWIHDVFGNCVALVGFTGKARELCFGTNIRLDHTQQVEMDLQIDAEALHYPFAYDPEEVVDLERTIKRHFADPDDEVGRWTRQFVRIGQPTETGRLLMTLCYAIHESFIYARRLEHGTQTPLETLRLRRGTCRDFALLMMEAARSLGLAARFVTGYIYVPDRDGSTKLGGGSTHAWCQVYLPGAGWVEFDPTNGIVGNRDLIRVGVARDPKQAVPLSGSYDGDASDFDTMSVQVNVTTDKLSDTAA,not soluble
10,GMTGHIDPTKEVFAQFRANDREGPIHMLNLVRLRPRAAYPDGRETTGAEAYAAYGRDSGPVSERLGGKVVWQGQFELMLIGPQDEHWDHVFIAEYPSVAAFVEMIRDPVYREAVKHRQAAVEDSRLIRLKPLKPGKGFGEIPT,soluble
11,LANKQIESRIIQFDVEFPSDEVAKQLSIEKTVPVYHIIRLRKVEGEPYVIEETYMPSNVISELNEDVLHGSVYRHITETLKLTIAGSHRKIRADKSSALDREYLECAPDDPVLEVEQVAFLNTGEPFEYSFARHRYDKFVFSSVHIRK,not soluble
12,MSLQIKFIDLFSGMSGIRKGFEQACRKQSVACECVFTSEIKPAALEVLKQNYPDEVPYGDITKIETGDIPDFDILLAGFPCQAFSFAGKRLGFEDTRGTLFFDVARILKAKKPKGFILENVEGLVTHDRKDPTQKIGRTLTVILETLETLGYYVSWKVLNAKDFGIPQNRKRIYLTGSLKSKPDLSFETTLSPKLKNILESGLPTESSPFIKKLLKKFPPSELYGKSVKDKRGGKNNIHSWDIELKGTVTEEEKQLLNMLLKERRKKKWASEIGIDWMDGMPLTKAQISTFYKHPNLQNILDSLTDKGYLVLEHPKQKIGGRRIKDESLPKGYNIVSGKKSFEINKILDPNDVAPTLVAMDMEHLFVVDNGGLRTLTGKEGLRLFGYPDDYSFDIPKKDKYDLLGNTVAVPVIKAVSERLLHTLEGHHHHHH,soluble
13,MGRKSKNSSQSHAHGPVPGVYPTTTGEVELRADSFLPHAFEVYVNGVPSSHIAQDPEQLEYEYMRWIAAIVDWFVTTHSDPKKLRVTHLGGGACTLARYVCHRYPNARNTVVELDATLATLVREWFDLPRSPQLKIRVGDAWEVAQTFVPSSRDVIIRDVFAGNQTPRRLTTVEFFQQCHQALSPGGLYVANCGDHRDLNVAKAEVQGLREVFDHVACIADPTMLKGRRYGNIILIATDTQLPTDQEQQVLTRLLLGGGVPAQFKGGNWTKNFSSSSTARHD,not soluble
14,MNNIDQLYTETKSMLSHIQNTPESDELLKQIEDFVATRSELIQEISLPLSEEERKQMKLILTWDQLIVKEMERLKQSIATELQQMKRKRVMHTTYLNPYNNITIDGTYYDKRKLEHHHHHH,soluble
15,MQPVLVFKLTADFREDPDPRKVNLGVGAYRTDDCHPWVLPVVKKVEQKIANDNSLNHEYLPILGLAEFRSCASRLALGDDSPALKEKRVGGVQSLGGTGALRIGADFLARWYNGTNNKNTPVYVSSPTWENHNAVFSAAGFKDIRSYRYWDAEKRGLDLQGFLNDLENAPEFSIVVLHACAHNPTGIDPTPEQWKQIASVMKHRFLFPFFDSAYQGFASGNLERDAWAIRYFVSEGFEFFCAQSFSKNFGLYNERVGNLTVVGKEPESILQVLSQMEKIVRITWSNPPAQGARIVASTLSNPELFEEWTGNVKTMADRILTMRSELRARLEALKTPGTWNHITDQIGMFSFTGLNPKQVEYLVNEKHIYLLPSGRINVSGLTTKNLDYVATSIHEAVTKIAENLYFQSHHHHHHDYKDDDDK,soluble
